Laboratory results from patent publication US20250288643A1 (FBD BIOLOGICS, published 2025).
Read-outs that look alike come from different tables or passages of the source.

T1: mouse CD47 (mouse, UniProt Q61735 19-140, limits assumed)
T1 sequence (looked up): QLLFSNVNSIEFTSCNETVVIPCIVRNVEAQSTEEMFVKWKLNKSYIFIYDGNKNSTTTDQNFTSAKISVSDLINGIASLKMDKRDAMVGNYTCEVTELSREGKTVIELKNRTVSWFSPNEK


Assays:
[1] = biological target: T2, human CD47 (hCD47) (human, UniProt Q08722 19-139, limits assumed); test: blocking ELISA, coated hCD47 ECD Fc, supernatant + biotin-SIRPα ECD His
Description: (§1) 150 μl of the collected supernatant and 20 μl biotin-labeled SIRPα ECD His protein (final concentration: 2.5 μg/ml) were added to the ELISA plates and incubated at 25° C. for 1 hour. After the incubation, avidin HRP (BioLegend, Cat #: 79004) with a dilution ratio of 1:1000 was added to the plate, and TMB was added for color development. The absorbance value at 450 nm was measured using a Varioskan™ LUX plate reader.

[2] = biological target: T2, human CD47 (hCD47); test: hCD47 binding OD over expression OD
Description: (§2) 30 μl of the collected supernatant was added to the ELISA plates and incubated at 25° C. for 1 hour. After the incubation, goat anti-c-Myc HRP with a dilution ratio of 1:10000 was added to the plate, and TMB was added for color development. The absorbance value at 450 nm was measured using a Varioskan™ LUX plate reader.

[3] = biological target: T2, human CD47 (hCD47); test: ELISA, coated hCD47 ECD Fc, supernatant, anti-c-Myc HRP
Description: as §2

[4] = biological target: T1, mouse CD47; test: ELISA, coated mouse CD47 ECD Fc, supernatant, anti-c-Myc HRP
Description: 100 μl of the collected supernatant was added to the ELISA plates and incubated at 25° C. for 1 hour. After the incubation, goat anti-c-Myc HRP with a dilution ratio of 1:10000 was added to the plate, and TMB was added for color development. The absorbance value at 450 nm was measured using a Varioskan™ LUX plate reader.

[5] = biological target: T2, human CD47 (hCD47); test: hCD47 binding OD over expression OD; remark: listed apart in the source
Description: as §2

[6] = biological target: T2, human CD47 (hCD47); test: ELISA, coated hCD47 ECD Fc, supernatant, anti-c-Myc HRP; remark: listed apart in the source
Description: as §2

[7] = biological target: T2, human CD47 (hCD47); test: blocking ELISA, coated hCD47 ECD Fc, supernatant + biotin-SIRPα ECD His; remark: listed apart in the source
Description: as §1

T2 sequence (Q08722 19-139 limits assumed): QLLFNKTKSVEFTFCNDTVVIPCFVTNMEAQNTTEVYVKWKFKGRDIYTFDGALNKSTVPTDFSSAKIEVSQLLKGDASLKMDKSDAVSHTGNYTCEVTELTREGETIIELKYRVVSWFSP

Blocking (OD) [1] | Blocking ability (%) [1] | hCD47 binding (B/E) [2] | hCD47 binding (OD) [3] | mCD47 binding (OD) [4] | hCD47 binding (B/E) [5] | hCD47 binding (OD) [6] | Blocking (OD) [7] | Blocking ability (%) [7] | Binder
0.319 OD | 93.3% | 1.53 | 1.67 OD | 0.348 OD |  |  |  |  | 4RP13-3-11A (designed binder, tested as bacterial supernatant; also called S-2; hSIRPα-mt3 (IgV domain)) hSIRPα IgV domain mutant: EEELQVIQPDKSVSVAAGESAILHCTVTSLWPVGPIQWFRGAGPARELIYNQKAWPFPRVTTVSESTKRENMDFSISISNITPADAGTYYCVKFRKGSPDTEFKSGAGTELSVRAKPS
0.45 OD | 80.1% | 2.89 | 1.87 OD | 0.41 OD | 2.89 | 1.87 OD | 0.45 OD | 80.1% | 4RP6-1-10A (designed binder, tested as bacterial supernatant; also called S-16; hSIRPα-mt13 (IgV domain)) hSIRPα IgV domain mutant: EEELQVIQPDKSVSVAAGESAILHCTVTSLLPVGPIQWFRGAGPARELIYNQKDFLFPRVTTVSESTKRENRDFSISISNITPADAGTYYCVKFRKGSPDTEFKSGAGTELSVRAKPS
 |  |  |  |  | 0.78 | 0.687 OD | 1.43 OD | 23.3% | 2R-1-7B (designed binder, tested as bacterial supernatant; also called hSIRPα-mt7 (IgV domain)) hSIRPα IgV domain mutant: EEELQVIQPDKSVSVAAGESAILHCIVTSLIPVGPIQWFRGAGPARELIYNQKILTFPRVTTVSESTKRENYDFSISISNITPADAGTYYCVKFRKGSPDTEFKSGAGTELSVRAKPS
 |  |  |  |  | 0.46 | 0.51 OD | 1.37 OD | 27.2% | 2R-1-10B (designed binder, tested as bacterial supernatant; also called hSIRPα-mt6 (IgV domain)) hSIRPα IgV domain mutant: EEELQVIQPDKSVSVAAGESAILHCTVTSLIPVGPIQWFRGAGPARELIYNQKNLIFPRVTTVSESGKRENMDFSISISNITPADAGTYYCVKFRKGSPDTEFKSGAGTELSVRAKPS
0.131 OD | 99.9% | 1.61 | 1.72 OD |  |  |  |  |  | 2RP-1-3E (designed binder, tested as bacterial supernatant; also called S-7; hSIRPα-mt9 (IgV domain)) hSIRPα IgV domain mutant: EEELQVIQPDKSVSVAAGESAILTCTVTSLWPVGPIQWFRGAGPARELIYNQKGQNFPRVTTVSESTKRFNMDFSISISNITPADAGTYYCVKFRKGSPDTEFKSGAGTELSVRAKPS
0.21 OD | 96.3% | 1.65 | 1.86 OD |  |  |  |  |  | 4RP13-4-5C (designed binder, tested as bacterial supernatant; also called S-21; hSIRPα-mt5 (IgV domain)) hSIRPα IgV domain mutant: EEELQVIQPDKSVSVAAGESAILNCTVTSLIPVGPIQWFRGAGPARELIYNQKHQTFPRVTTVSEQTKRENRDFSISISNITPADAGTYYCVKFRKGSPDTEFKSGAGTELSVRAKPS
0.229 OD | 99.8% | 1.7 | 1.79 OD |  |  |  |  |  | 4RP13-3-4D (designed binder, tested as bacterial supernatant; also called S-11; hSIRPα-mt11 (IgV domain)) hSIRPα IgV domain mutant: EEELQVIQPDKSVSVAAGESAILHCTVTSLLPVGPIQWFRGAGPARELIYNQKSKVFPRVTTVSESTKRRNMDFSISISNITPADAGTYYCVKFRKGSPDTEFKSGAGTELSVRAKPS
 |  |  |  |  | 0.77 | 0.946 OD | 1.36 OD | 27.9% | 2R-1-4B (designed binder, tested as bacterial supernatant; also called hSIRPα-mt14 (IgV domain)) hSIRPα IgV domain mutant: EEELQVIQPDKSVSVAAGESAILHCTVTSLAPVGPIQWFRGAGPARELIYNQKLDSFPRVTTVSESTKRESMDFSISISNITPADAGTYYCVKFRKGSPDTEFKSGAGTELSVRAKPS
0.215 OD | 95.8% | 2.44 | 1.9 OD | 0.293 OD |  |  |  |  | 4RP13-1-7A (designed binder, tested as bacterial supernatant; also called S-19; hSIRPα-mt8 (IgV domain)) hSIRPα IgV domain mutant: EEELQVIQPDKSVSVAAGESAILHCTVTSLKPVGPIQWFRGAGPARELIYNQKRDTFPRVTTVSESTKRENRDFSISISNITPADAGTYYCVKFRKGSPDTEFKSGAGTELSVRAKPS
 |  |  |  |  | 1.01 | 1.65 OD | 1.11 OD | 46.3% | 4RP13-5-6G (designed binder, tested as bacterial supernatant; also called hSIRPα-mt15 (IgV domain)) hSIRPα IgV domain mutant: EEELQVIQPDKSVSVAAGESAILRCTVTSLTPVGPIQWFRGAGPARELIYNQKAKQFPRVTTVSESTKRENMIFSISISNITPADAGTYYCVKFRKGSPDTEFKSGAGTELSVRAKPS
0.194 OD | 96.9% | 2.27 | 1.94 OD | 0.412 OD |  |  |  |  | 4RP13-1-2G (designed binder, tested as bacterial supernatant; also called S-5; hSIRPα-mt4 (IgV domain)) hSIRPα IgV domain mutant: EEELQVIQPDKSVSVAAGESAILRCTVTSLWPVGPIQWFRGAGPARELIYNQKAFIFPRVTTVSESTKRGNMDFSISISNITPADAGTYYCVKFRKGSPDTEFKSGAGTELSVRAKPS
0.299 OD | 94.7% | 1.33 | 1.65 OD |  |  |  |  |  | 4RP13-3-10B (designed binder, tested as bacterial supernatant; also called S-26; hSIRPα-mt12 (IgV domain)) hSIRPα IgV domain mutant: EEELQVIQPDKSVSVAAGESAILHCTVTSLYPVGPIQWFRGAGPARELIYNQKGRRFPRVTTVSESTKRANMDFSISISNITPADAGTYYCVKFRKGSPDTEFKSGAGTELSVRAKPS
0.332 OD | 92.4% | 1.25 | 1.49 OD |  | 1.25 | 1.49 OD | 0.332 OD | 92.4% | 4RP13-3-7B (designed binder, tested as bacterial supernatant; also called S-28; hSIRPα-mt10 (IgV domain)) hSIRPα IgV domain mutant: EEELQVIQPDKSVSVAAGESAILTCTVTSLYPVGPIQWFRGAGPARELIYNQKRQTFPRVTTVSESTKRFNMDFSISISNITPADAGTYYCVKFRKGSPDTEFKSGAGTELSVRAKPS
